Laboratory results: paper PMC10349951
Where “and” joins values, the source holds several entries; their conditions need not be identical. Identical values can stand only once.

Target: Recombinant Halo-tagged Synaptophysin labeled with Alexa488 (mouse) (UniProt Q62277)
Assay: single-molecule TIRF step photobleaching

For “Recombinant Halo-tagged Synaptophysin labeled with Alexa488 (from UniProt Q62277 1-314) (natural protein)”, the stoichiometry N was 3 copies and 5 copies.
